Laboratory results from patent US7223734B2, “Plasma protein-binding ligands” (The American National Red Cross, priority 2002, dated 2007).
Where “and” joins values, the source holds several entries; their conditions need not be identical. Equal entries are not always repeated. Non-standard residues stand in square brackets, D forms with d. No end group written: not given here.

Legend:
fibrinogen [1] = molecular target: T1, fibrinogen (Homo sapiens, UniProt P02671+P02675+P02679); assay: Purification of fibrinogen from plasma by affinity chromatography on D-ARQFDF resin (Example 2); format: binding
T1 construct: from tissue; host or cells: human plasma
T1 sequence (P02671 20-629 limits assumed): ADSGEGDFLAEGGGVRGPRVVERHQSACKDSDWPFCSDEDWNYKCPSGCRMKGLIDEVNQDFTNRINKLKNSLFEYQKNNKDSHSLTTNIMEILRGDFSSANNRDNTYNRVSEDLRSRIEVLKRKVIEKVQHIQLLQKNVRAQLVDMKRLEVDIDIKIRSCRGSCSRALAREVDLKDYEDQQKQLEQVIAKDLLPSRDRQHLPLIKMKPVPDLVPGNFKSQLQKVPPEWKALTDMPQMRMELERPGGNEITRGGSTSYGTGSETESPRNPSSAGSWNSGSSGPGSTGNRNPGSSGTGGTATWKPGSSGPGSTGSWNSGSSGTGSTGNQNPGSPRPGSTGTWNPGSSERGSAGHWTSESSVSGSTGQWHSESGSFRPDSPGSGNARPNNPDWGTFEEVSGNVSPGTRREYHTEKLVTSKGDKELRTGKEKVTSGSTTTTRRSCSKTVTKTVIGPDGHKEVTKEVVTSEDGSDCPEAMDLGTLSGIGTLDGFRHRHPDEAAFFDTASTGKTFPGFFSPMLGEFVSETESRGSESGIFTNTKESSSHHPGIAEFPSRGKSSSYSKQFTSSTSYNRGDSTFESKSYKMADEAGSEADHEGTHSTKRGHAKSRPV
T1 sequence (P02675 31-491): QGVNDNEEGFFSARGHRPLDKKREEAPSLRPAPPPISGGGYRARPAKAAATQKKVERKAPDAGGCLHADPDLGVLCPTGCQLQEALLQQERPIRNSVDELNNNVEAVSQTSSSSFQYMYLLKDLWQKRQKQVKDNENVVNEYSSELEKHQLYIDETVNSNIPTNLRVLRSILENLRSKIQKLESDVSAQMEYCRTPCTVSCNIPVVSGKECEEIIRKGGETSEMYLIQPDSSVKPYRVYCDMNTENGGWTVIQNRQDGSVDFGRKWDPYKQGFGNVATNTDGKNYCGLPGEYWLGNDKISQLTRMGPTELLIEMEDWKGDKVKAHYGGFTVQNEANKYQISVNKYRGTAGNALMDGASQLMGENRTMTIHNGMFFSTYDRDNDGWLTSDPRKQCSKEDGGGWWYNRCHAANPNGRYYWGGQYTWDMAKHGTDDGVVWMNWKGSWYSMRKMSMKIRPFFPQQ
T1 sequence (P02679 27-433 limits assumed): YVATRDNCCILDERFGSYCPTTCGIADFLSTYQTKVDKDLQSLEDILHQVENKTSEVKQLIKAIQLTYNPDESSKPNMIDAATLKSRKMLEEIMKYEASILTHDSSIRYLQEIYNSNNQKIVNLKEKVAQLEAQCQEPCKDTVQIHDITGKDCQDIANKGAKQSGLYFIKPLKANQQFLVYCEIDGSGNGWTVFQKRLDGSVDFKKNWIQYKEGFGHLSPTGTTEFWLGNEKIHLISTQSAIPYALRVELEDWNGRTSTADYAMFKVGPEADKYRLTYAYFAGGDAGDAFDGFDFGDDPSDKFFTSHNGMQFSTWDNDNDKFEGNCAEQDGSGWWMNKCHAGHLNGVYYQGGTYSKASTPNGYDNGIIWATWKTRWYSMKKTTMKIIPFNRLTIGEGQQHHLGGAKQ
Method: ToyoPearl AF-Amino 650 M resin beads displaying dried D-ARQFDF (SEQ ID NO: 20) peptide via an epsilon amino caproic acid (EACA) spacer were suspended in 20% methanol for a minimum of 2 hours before equilibration in 0.12–0.15 M NaCl, 0.020 M sodium citrate, pH 6.5–7.5. For 2.0–2.1 ml columns, about […] of resin was obtained. The resin was subsequently packed in an Omni Column of 1.0–1.5 cm diameter and evaluated either on an ÄKTAExplorer System or BIO RAD BioLogic LP. Optical density at 280 nm–320 nm and conductivity was constantly monitored during the evaluations. Flow rates were selected according to column size to achieve linear velocities of 30–60 cm/hour and residence times between 5–8 minutes.
All evaluations were performed at room temperature with cryo-rich plasma that had been 0.8 μm and 0.45 μm filtered. A linear velocity (LV) of […] was maintained throughout the experiments. Fifty milliliters of plasma was applied at 1.5 ml/min (RT=6.7) onto 10 ml column (height 5.7 cm, CF=1.77 cm^2) that had been equilibrated with 0.14 M NaCl, 0.020 M sodium citrate, pH 7.0 (EQ buffer). After the column was washed with EQ buffer to baseline, the fibrinogen was eluted with 0.3 M glycine, 0.5 M NaCl at pH 9.0 (10 CV). The column was regenerated with 2% Sarkosyl, 2.0 M guanidine-HCl, 30% ethanol, followed by a 70% ethanol/2% acetic acid mixture and stored in 20% methanol.

fibrinogen [2] = molecular target: T1, fibrinogen; assay: Preparation of fibrinogen- and Apo-A1-depleted plasma: fibrinogen capture (Example 5); format: binding; conditions: nephelometric and clotting analysis
Method: (§1) Toyopearl AF Amino 650M resin displaying a peptide consisting essentially of the amino acid sequence D-ARQFDF (SEQ ID NO: 20) was suspended for 2 hours in 20% methanol. After washing with distilled water, the resin was packed into an Omni column (column volume (CV)=10 ml; diameter 1.5 cm; CF 1.77 cm^2) and equilibrated in 0.14 M NaCl, 0.020 M sodium citrate, pH 7.0 (EQ buffer). Fifty milliliters of filtered plasma (0.80 mm, Nalgene CN, Cat. No. 380-0080; 0.45 μm, Corning CA, Cat. No. 431155; 0.20 μm, Nalgene PES, Cat. No. 165-0020) were loaded on the Omni columns at a linear velocity (LV) of 50 cm/H (flow rate (FR)=1.5 ml/min; residence time (RT)=6.7 minutes). The flow-through was collected in column volumes. After pooling fibrinogen-depleted plasma (50 ml), the flow-through was loaded onto a column comprising a resin displaying an Apo-A1 lipoprotein-binding ligand (D-WWLHIN (SEQ ID NO: 33)), as described below. The fibrinogen-binding column was washed with 12 CVs of EQ buffer and the fibrinogen eluted with 10 CVs of 0.3 M glycine, 0.5 M NaCl, pH 9.0. The column was regenerated with 10 CVs of 2% Sarkosyl, pH 8.0, followed by 10 CVs of 2.0 M guanidine (GuHCl). After washing with 5 CVs of distilled water, the column was further cleaned with 6 CVs of 30% ethanol and 6 CVs of 70% ethanol containing 2% acetic acid. […]

API = molecular target: T2, API (Homo sapiens, UniProt P01009); assay: Preparation of fibrinogen- and Apo-A1-depleted plasma: API in flow-through (Example 5); format: binding; conditions: after chromatography on the named resin
T2 construct: from tissue; host or cells: human plasma (whole, fibrinogen-depleted or F1-Apo-depleted)
Method: as §1

Apo-A1 lipoprotein [3] = assay: Preparation of fibrinogen- and Apo-A1-depleted plasma: Apo-A1 in flow-through (Example 5); format: binding, human
Method: as §1

fibrinogen [4] = molecular target: T1, fibrinogen; assay: Purification of fibrinogen from plasma on HWQ resin column (Example 3); format: binding
Method: Five milliliters of plasma was applied at a flow rate of 0.2 ml/min. onto a 0.8 ml column (RT=4.0 min) containing a resin displaying the HWQ ligand, and was equilibrated with 0.14 M NaCl, 0.020M sodium citrate, pH 7.0 (EQ buffer). After washing the resin with EQ buffer and 0.5 M NaCl, pH 7.0, to baseline, the bound fibrinogen was eluted with 2.0 M NaCl, pH 7.0 or 0.3 M glycine, 0.5M NaCl, pH 9.0. All of the wash and elution buffers contained 0.020 M sodium citrate. […] However, dynamic resin capacities of 5–8 mg were reached. The resin was regenerated with 2 M guanidine-HCl, 2% Sarkosyl, 30% ethanol and 70% ethanol/2% acetic acid, followed by storage in 20% methanol.

Apo-A1 lipoprotein [5] = molecular target: T3, Apo-A1 lipoprotein (Homo sapiens, UniProt P02647); assay: Apo-A1 lipoprotein purification from fibrinogen-depleted plasma on peptide resin column (Example 4); format: binding
T3 construct: from tissue; host or cells: human plasma (whole or fibrinogen-depleted)
Method: Apo-A1 lipoprotein purification was accomplished with D-WWLHIN (SEQ ID NO: 33) peptides and several analogs. Indeed, about 100% Apo-A1 lipoprotein depletion from plasma was repeatedly obtained with D-WWLHAN (SEQ ID NO: 56) and D-WWLHIN (SEQ ID NO: […]). Fourteen milliliters of fibrinogen-depleted plasma was loaded onto a 2.3 ml column (CF=0.785 cm^2) at 0.4 ml/min. (LV=30 cm/H; RT=5.8) that had been equilibrated with 0.14 M NaCl, 0.020 M sodium citrate, pH 7.0 (EQ buffer). After the column was washed with EQ buffer to baseline, Apo-A1 lipoprotein was eluted with 2.0 M NaCl, 1% Tween-20, 0.020M sodium citrate, pH 7.0. The column was regenerated with 2.0 M guanidine-HCl, 2% Sarkosyl, and 2% acetic acid and stored in 20% methanol.

paraoxonase [6] = conditions: after 1 hour incubation with resin at 37° C.; rabbit serum diluted 1/10
Method: Paraoxonase binding to a WWLHAN (SEQ ID NO: 56)-displaying resin was evaluated according to the following protocol. Rabbit serum diluted 1/10 times with PBS ([…]) was incubated in a rotating Eppendorf tube with 50 μl of D-WWLHAN (SEQ ID NO: 56)-displaying resin suspension containing approximately […] of resin. The resin was previously soaked in 20% methanol overnight and washed 3 times with PBS to remove the methanol traces and resuspended in paraoxonase assay buffer (20 mM Tris pH 8.0, 150 mM NaCl, and 2 mM CaCl2). After 1 hour incubation at 37° C., resin beads were precipitated by centrifugation at 8000 g for 1 min in an Eppendorf microcentrifuge. Supernatants were transferred into separate Eppendorf tubes and resin bead pellets were resuspended in equal volumes of paraoxonase assay buffer. Paraoxonase activity of resin bead suspensions and supernatant solutions was measured. In particular, 100 μl of paraoxonase assay buffer containing 100 μm of DEPFMU (a fluorogenic substrate for paraoxonase detection) was mixed with […] of supernatant or 10 μl of resin bead suspension, or the original serum solution in a standard microtiter plate well. After thorough mixing, the plate solution was incubated for 20 minutes at 37° C. Hydrolysis of DEPFMU was quantified by measuring the fluorescence level at […] using a commercial fluorometer. The level of fluorescence correlates with the level of 6,8-difluoro-4-methylumbelliferyl released from DEPFMU as a result of paraoxonase-mediated hydrolysis. The actual amount of 6,8-difluoro-4-methylumbelliferyl released in the assay can be calibrated with a known amount of 6,8-difluoro-4-methylumbelliferyl.
Several different D-WWLHIN (SEQ ID NO: 33) analogs were screened for the ability to bind to paraoxonase under the conditions described in Example 7. For this experiment, the following resins were tested: WWLHAN (SEQ ID NO: 56), AWLHIN (SEQ ID NO: 59), WALHIN (SEQ ID NO: 60), WWAHIN (SEQ ID NO: 61), WWLHIA (SEQ ID NO: 63), WYLHIN (SEQ ID NO: 35), WWLFIN (SEQ ID NO: 36), and na1′WLHIN (SEQ ID NO: 40).

paraoxonase [7] = conditions: without use of detergent
Description: Paraoxonase, or any plasma protein, can be recovered from the isolated or purified peptide of the invention coupled to a bead (i.e., a support) by several different approaches, including washing beads with buffers with high and low ionic strength, high and low pH, or buffers comprising up to 50% of ethylene glycol and different detergents.

T2 sequence (P01009 25-418): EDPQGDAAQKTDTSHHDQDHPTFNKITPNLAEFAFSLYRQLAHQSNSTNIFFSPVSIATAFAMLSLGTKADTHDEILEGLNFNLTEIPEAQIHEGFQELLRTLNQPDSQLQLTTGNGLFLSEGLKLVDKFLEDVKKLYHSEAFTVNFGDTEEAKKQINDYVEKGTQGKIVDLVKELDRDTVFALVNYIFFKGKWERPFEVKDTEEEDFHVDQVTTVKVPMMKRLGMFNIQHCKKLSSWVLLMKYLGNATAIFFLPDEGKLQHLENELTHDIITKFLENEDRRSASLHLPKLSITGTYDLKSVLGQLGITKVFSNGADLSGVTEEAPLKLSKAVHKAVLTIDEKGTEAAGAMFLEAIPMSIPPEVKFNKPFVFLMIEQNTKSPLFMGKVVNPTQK
T3 sequence (P02647 25-267 limits assumed): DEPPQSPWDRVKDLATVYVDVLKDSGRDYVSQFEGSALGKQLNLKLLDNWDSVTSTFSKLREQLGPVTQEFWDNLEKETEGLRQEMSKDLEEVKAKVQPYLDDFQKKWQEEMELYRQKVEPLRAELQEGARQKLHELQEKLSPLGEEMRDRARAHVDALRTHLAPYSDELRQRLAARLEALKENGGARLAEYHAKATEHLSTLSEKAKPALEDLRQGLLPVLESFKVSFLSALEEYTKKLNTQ

| Substance | Total Fibrinogen (fibrinogen [1]; Elution, plasma load 51 mg) | Fibrinogen (fibrinogen [1]; Flow thru + Post wash, fibrinogen antigen (nephelometric analysis), plasma load 25 ml, 2.04 mg/ml) [mg/mL] | runs with minimal changes in performance, dynamic resin capacity, or purity of fibrinogen eluates (fibrinogen [1]; resin reuse) | dynamic resin capacity (fibrinogen [1]; resin-to-plasma ratios of 1:3.5 to 1:4.5, peptide ligand densities 0.67–0.94 mmol/g resin) | fibrinogen captured (fibrinogen [2]) [%] | API recovered in the flow-through (API) | Apo-A1 lipoprotein detected in the flow-through (Apo-A1 lipoprotein [3]; after treatment with the named resin) | elution of bound fibrinogen (fibrinogen [4]; 2.0 M NaCl, pH 7.0 or 0.3 M glycine, 0.5M NaCl, pH 9.0) | dynamic resin capacities (fibrinogen [4]; 5 ml plasma on 0.8 ml column) [mg] | Apo-A1 lipoprotein depletion from plasma (Apo-A1 lipoprotein [5]) | Apo-A1 lipoprotein detection after treating with the resin (Apo-A1 lipoprotein [3]; nephelometry and SDS-PAGE analysis) | original paraoxonase activity remaining in the serum (paraoxonase [6]) | paraoxonase activity eluted from the beads into the supernatant (paraoxonase [7]) |
| --- | --- | --- | --- | --- | --- | --- | --- | --- | --- | --- | --- | --- | --- |
| D-ARQFDF ([dA]RQFDF; not fully specified (residues 2, 3, 4, 5, 6, C-terminus)) | 54 mg and 46 mg | <0.15 | over 15 runs | 6–8 g/L of resin | 100 | 100% | Ninety |  |  |  |  |  |  |
| HWQ |  |  |  |  |  |  |  | Complete elution of fibrinogen was not achieved | 5 to 8 |  |  |  |  |
| WWLHAN ([dW]WLHAN; not fully specified (residues 2, 3, 4, 5, 6)) [D-WWLHAN] |  |  |  |  |  | 90–95% |  |  |  | about 100% | no Apo-A1 lipoprotein could be detected | less than 4% | No paraoxonase activity was eluted |
